Assay results published in article PMC10042821, “Cryo-EM structure of human eIF5A-DHS complex reveals the molecular basis of hypusination-associated neurodegenerative disorders” (Nature Communications, 2023).
Numbering of substitutions follows the chain as printed.

Experiments:
Test in all cases: MST; His-tagged DHS variants labelled with RED-tris-NTA 2nd Generation, 8.32 nM; eIF5A titrated, sixteen dilutions 0.00175–57.5 μM; 50 mM Tris, 200 mM NaCl, 5 mM β-ME pH 8; Monolith NT.115, 40% excitation power, 60% MST power; no NAD or SPD
Conditions in all cases: both partners purified
[1] = molecular target: T1, deoxyhypusine synthase Y176A, His-tagged (human, UniProt P49366 1-369, Y176A, RED-tris-NTA 2nd Generation dye on the His tag)
T1 construct: human deoxyhypusine synthase, Uniprot P49366, residues 1-369, site-directed mutant of the pET24d full-length construct; also called DHS Y176A; source: E. coli, purified; not shown: 6xHis, N-terminal, kept
T1 sequence (looked up): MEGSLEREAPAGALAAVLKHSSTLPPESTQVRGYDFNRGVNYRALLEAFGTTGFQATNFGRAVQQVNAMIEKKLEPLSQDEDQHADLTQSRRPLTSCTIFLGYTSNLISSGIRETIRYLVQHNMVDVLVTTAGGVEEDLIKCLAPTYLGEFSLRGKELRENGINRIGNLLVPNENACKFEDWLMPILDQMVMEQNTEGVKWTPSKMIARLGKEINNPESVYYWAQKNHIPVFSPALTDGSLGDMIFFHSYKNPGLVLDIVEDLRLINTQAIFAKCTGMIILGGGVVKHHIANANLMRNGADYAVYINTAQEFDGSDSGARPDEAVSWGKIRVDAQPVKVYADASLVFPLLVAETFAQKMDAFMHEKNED

[2] = molecular target: T2, deoxyhypusine synthase L295A, His-tagged (human, UniProt P49366 1-369, L295A, RED-tris-NTA 2nd Generation dye on the His tag)
T2 construct: human deoxyhypusine synthase, Uniprot P49366, residues 1-369, site-directed mutant of the pET24d full-length construct; also called DHS L295A; source: E. coli, purified; not shown: 6xHis, N-terminal, kept
T2 sequence (looked up): T1 sequence (looked up) with A176Y, L295A

[3] = molecular target: T3, deoxyhypusine synthase F272A, His-tagged (human, UniProt P49366 1-369, F272A, RED-tris-NTA 2nd Generation dye on the His tag)
T3 construct: human deoxyhypusine synthase, Uniprot P49366, residues 1-369, site-directed mutant of the pET24d full-length construct; also called DHS F272A; source: E. coli, purified; not shown: 6xHis, N-terminal, kept
T3 sequence (looked up): T1 sequence (looked up) with A176Y, F272A

[4] = molecular target: T4, deoxyhypusine synthase N173A, His-tagged (human, UniProt P49366 1-369, N173A, RED-tris-NTA 2nd Generation dye on the His tag)
T4 construct: human deoxyhypusine synthase, Uniprot P49366, residues 1-369, site-directed mutant of the pET24d full-length construct; also called DHS N173A; source: E. coli, purified; not shown: 6xHis, N-terminal, kept
T4 sequence (looked up): T1 sequence (looked up) with N173A, A176Y

B1: eukaryotic translation factor 5A (eIF5A-1), residues 15-151 (domain or fragment)
chain: not shown
notes: human eIF5A1, residues 15-151, from pET28-MHL (Addgene); The purification protocol removes the tag with TEV; source: E. coli, purified (HisTrap, TEV cleavage, reverse HisTrap, SEC); not shown: His tag, N-terminal, cleaved
B1 showed a Kd [1] of 1090 ± 548 nM, a Kd [2] of 393 ± 107 nM and a Kd [3] of 504 ± 154 nM. It also gave a Kd [4] of over 5000 nM.
